Source: patent publication US20050221478A1, “Control of es cell self renewal and lineage specification, and medium therefor” (University of Edinburgh, priority 2002, published 2005)

B1: activin A: growth factor added to the culture medium at 5 ng/ml (protein, UniProt P08476 311-426, looked up)
Inhibin beta A chain: GLECDGKVNICCKKQFFVSFKDIGWNDWIIAPSGYHANYCEGECPSHIAGTSGSSLSFHSTVINHYRMRGHSPFANLKSCCVPTKLRPMSMLYYDDGQNIIKKDIQNMIVEECGCS
B2: BMP4: bone morphogenetic protein, agonist of a receptor of the TGF-β superfamily (protein, UniProt P12644 293-408, looked up)
Bone morphogenetic protein 4: SPKHHSQRARKKNKNCRRHSLYVDFSDVGWNDWIVAPPGYQAFYCHGDCPFPLADHLNSTNHAIVQTLVNSVNSSIPKACCVPTELSAISMLYLDEYDKVVLKNYQEMVVEGCGCR

Legend:
ES cells [1] = assay: Serum-free medium and transient growth factor stimulation: numbers of undifferentiated ES cells; format: cell-based; conditions: factor continuously present in LIF and BMP4 medium
Description: ES cells were grown initally in a medium comprising DMEM F12 plus neurobasal medium (ratio 1:1) supplemented with N2-B27. ES cells were plated at very low density, about 1000-10,000 cells on a 3.5 cm diameter plate and grown on in the same medium supplemented with LIF and BMP4. […]
We observed enhanced numbers of undifferentiated ES cells, indicating increased proliferation or increased ES cell survival, or both.
After more (5-6) passages the rank order of efficacy changed to:—

ES cells [2] = assay: Self-renewal of pluripotent cells with agonists of a receptor of the TGF-β superfamily or FGF receptor inhibitor; format: cell-based
ES cells [3] = assay: Extended passaging of ES cells in serum free, feeder cell free defined culture media; format: cell-based, murine; conditions: after multiple passages in serum free medium
Excerpt: When using the LIF and BMP4-containing medium of a specific embodiment of the present invention extended passaging of ES cells is possible. In one example, murine ES cells have been maintained for more than 20 passages over a three month period. Cells were passaged every 2-4 days depending on the plating cell density, though occasionally cells were passaged 7-10 days after plating at low density.
In an alternative embodiment, it is an option not to remove the FGF receptor inhibitor. […] ES-cells can be grown in culture for at least 20 passages in. N2B27 medium in the presence of LIF and an FGF inhibitor, in the absence of BMP. If the FGF receptor inhibitor is not removed from the medium, it is preferred that it is a specific inhibitor and has little or no activity on other receptors.
N2B27 (1:1 mixture of DMEM/F12 medium supplemented with modified N2 (25 μg/ml insulin, 100 μg/ml apo-transferrin, 6 ng/ml progesterone, 16 μg/ml putrescine, 30 nM sodium selenite and 50 μg/ml bovine serum albumin) and Neurobasal medium supplemented with B27)
ES cells were cultured in 0.1% gelatin coated dishes in N2B27 medium supplemented with LIF (100 U/ml) and BMP4 (10 ng/ml). For passaging, a standard protein-free cell dissociation buffer was used to dissociate cells.
The plating density of the cells was approximately 1-5×10^4/cm^2. […]

| Molecule | effect when continuously present (ES cells [1]) | result as agonist of a receptor of the TGF-β superfamily for self-renewal (ES cells [2]) | differentiation of ES cells in the presence of BMP4 but absence of LIF (ES cells [3]) |
| --- | --- | --- | --- |
| TGFβ: growth factor added to the culture medium at 1-2 ng/ml | progressive differentiation of the ES cells | – | – |
| B1 | progressive differentiation of the ES cells | – | – |
| B2 | – | Good results | differentiated into large flat cells of characteristic morphology |
